Reference: PMC9888213, “The Mobility of the Cap Domain Is Essential for the Substrate Promiscuity of a Family IV Esterase from Sorghum Rhizosphere Microbiome” (Applied and Environmental Microbiology, 2023)

Columns and labels:
Experiment in all cases: purified protein
Type in all cases: biochemical, uncultured Sphingomonas sp.
[1] = test system: T1, CCCC(=O)Oc1ccc([N+](=O)[O-])cc1; conditions: 50 mM potassium phosphate pH 7.0, 0.3% Triton X-100, 30 °C, up to 5% DMSO-acetonitrile
T1 construct: full length, 324 residues, N-terminal His6 tag (p15TV-L), expressed in E. coli BL21(DE3), Ni-NTA purified; homodimer

[2] = test system: T2, CCCCCCCCCCCC(=O)Oc1ccc([N+](=O)[O-])cc1; conditions: 50 mM potassium phosphate pH 7.0, 0.3% Triton X-100, 30 °C, up to 7.5% DMSO-acetonitrile
T2 construct: full length, 324 residues, N-terminal His6 tag (p15TV-L), expressed in E. coli BL21(DE3), Ni-NTA purified; homodimer

[3] = test system: T3, CC(=O)Oc1ccc([N+](=O)[O-])cc1; conditions: 50 mM potassium phosphate pH 7.0, 0.3% Triton X-100, 30 °C, up to 5% DMSO-acetonitrile
T3 construct: full length, 324 residues, N-terminal His6 tag (p15TV-L), expressed in E. coli BL21(DE3), Ni-NTA purified; homodimer

Substance: EH0 (uncultured Sphingomonas sp.)
- Km [1]: 1080 ± 180 µM
- Vmax [1]: 253 µM/min
- kcat [1]: 0.602 ± 0.033 s⁻¹
- kcat/Km [1]: 558 M⁻¹ s⁻¹
- Km [2]: 1000 ± 280 µM
- Vmax [2]: 25.6 µM/min
- kcat [2]: 0.0608 ± 0.00433 s⁻¹
- kcat/Km [2]: 61 M⁻¹ s⁻¹
- Km [3]: 1610 ± 120 µM
- Vmax [3]: 292 µM/min
- kcat [3]: 0.694 ± 0.0182 s⁻¹
- kcat/Km [3]: 430 M⁻¹ s⁻¹
